Laboratory results reported in the DeepSol protein solubility set.

Assay: soluble on expression in E. coli; label from the status in PepcDB or PDB records

| Sequence | soluble on expression in E. coli |
| --- | --- |
| MPRDPLIGIVGKPSSGKSTTLNSLTDAGAAVGAFPFTTIEPNQATGYLQVECACSRFGKEDLCKPNYGWCSKGKRHIPIKLLDVAGLVPGAHSGRGLGNKFLDDLRHADALIHVVDVSGTTDAEGKNTRGYDPLNDIEWLQDEIRLWVEGNLKKRWGSIVRKHTATKSSIVDTLQAQFGGYGSHAPMIQKALDRLKGLPPLEKWDDEWITRVVKSFMMEKFPTVLALNKIDHPDADKNVSKIMLKYPDTKAVLTSAVTEVFLRKLKKQGFILYEEGTEFVDTFEDEPDKLKPLDDKILNRIENIRDLVLYRFGSTGVVQVLQAATDILGLIPVYTVKNIQTFTGGNGTNVFRDCFLVKRGTPVGKVARYIMGGEVTIASIETVGGVRVSEESLVEPGKNDILGFKIAPRSA | soluble |
| MKGIILAGGTGSRLYPITKVTNKHLLPVGRYPMIYHAVYKLKQCDITDIMIITGKEHMGDVVSFLGSGQEFGVSFTYRVQDKAGGIAQALGLCEDFVGNDRMVVILGDNIFSDDIRPYVEEFTNQKEGAKVLLQSVDDPERFGVANIQNRKIIEIEEKPKEPKSSYAVTGIYLYDSKVFSYIKELKPSARGELEITDINNWYLKRGVLTYNEMSGWWTDAGTHVSLQRANALARDINFGKQFNGE | not soluble |
| MQFDNIDSALMALKNGETIIVVDDENRENEGDLVAVTEWMNDNTINFMAKEARGLICAPVSKDIAQRLDLVQMVDDNSDIFGTQFTVSIDHVDTTTGISAYERTLTAKKLIDPSSEAKDFNRPGHLFPLVAQDKGVLARNGHTEAAVDLAKLTGAKPAGVICEIMNDDGTMAKGQDLQKFKEKHQLKMITIDDLIEYRKKLEPEIEFKAKVKMPTDFGTFDMYGFKATYTDEEIVVLTKGAIRQHENVRLHSACLTGDIFHSQRCDCGAQLESSMKYINEHGGMIIYLPQEGRGIGLLNKLRAYELIEQGYDTVTANLALGFDEDLRDYHIAAQILKYFNIEHINLLSNNPSKFEGLKQYGIDIAERIEVIVPETVHNHDYMETKKIKMGHLIMAGDPLEHHHHHH | not soluble |
| MKIVAFNGSPRKGGNTELLIKEVFKPIQEAGIETELVQLGGKLLRGCASCYTCFKTKDGKCAIKTDPMNEFIQKAQEADGIILASPTYYGSVSAEMKAFMDRLGLTTIGQGRTLTRKVGAAVISVRRGGAVTVYDELNRFMLGSGMIVPGSTYWNFGIGEMPGEVFDDAEGLRNMKDLGVQLAWLLKAIHNLEHHHHHH | soluble |
| MPRSFLVKKHFNASKKPNYSELDTHTVIISPYLYESYSMPVIPQPEILSSGAYSPITVWTTAAPFHAQLPNGLSPLSGYSSSLGRVSPPPPSDTSSKDHSGSESPISDEEERLQSKLSDPHAIEAEKFQCNLCNKTYSTFSGLAKHKQLHCDAQSRKSFSCKYCDKEYVSLGALKMHIRTHTLPCVCKICGKAFSRPWLLQGHIRTHTGEKPFSCPHCNRAFADRSNLRAHLQTHSDVKKYQCKNCSKTFSRMSLLHKHEESGCCVAH | not soluble |
| MHIKSIHLDGFKSYQKHTDILDFSPTFNAITGYNGSGKSNILDSICFIMGINKLDNIRAKSMHELISHGGTKAIVQVRFDNTDKRCSPFGMEHLDEIVVQRIITAQATGKGCATSYTLNGHAATNGKMQDFFRGVGLNVNNPHFLIMQGRITTVLNMKPEEILGMVEEAAGTKMYDQKKKDAEKTMFLKDAKLKEVDRIFQSSIDPRMVKFREDRKNMVEVTRLKKLKENFSRKYEAFQYFQTCEAVKKSAKEIEDAKKGIEDLGEKFNQLDLDLKNKEDEKKKMEESRDDQHEEAALSAAHLSKQSIMLQKETVKNQLVETINKLKKEGEQINKSLSKDREVLDAKRKEHEDSKAANSKDIQSQSDDEALVTKYRNDLESLTRGTIANDKGEHVSIESEIQSCKSTASQMSSGITAAKKRGERLHNQIKHLEGEKATLSARSKSDIGSADNYQKEVDEINKQLQLLGFNIDADTEKREHAAKLHESITKLKDMDTRLLNSYKDGRYALNYQRPPLHIDKFDEKRDVFGYVAHLIKMKPGCEQFAVAADIALGGVLGNVVVSTQDIARILIDGKAFTSRKTMIPVSENARNASSYNTLPDVKLRRAKEIAEKYNDTVTKMIDLIEYPDFISNTILNAVGQILVVDSLDVAREIAYDEVAKTRMITRRGDDVRTNGIMTGGYNDPGNKPALIALEPMYARRPQIEAQQRELDALNRELQLTEASSQKCRDLNNQLATAMRKLAQVKTNINNSEFGIVVRDLKVHSEEYEKNQAEIEATVKTLKDVEDKIKTLESMKNKDKNSQEKRKKELTALLQKAEQTVAQNKNRGEKARREVMLLQATVEEMEKTIKKDEGIWEQKKKECDELEEKLPNAIAALKDAELEQKAAQAKLNDLKNNQRQISTRLGKIAKECDALIREKAKTKSKREEKEKELTSLQQSEASNRKEARSKLKKFEWLSDEEAHFNKKGGLYDFEGYTVSKGKDEIKELTDKIETLERSCCIQNVSNLDTCEAKVLDIKNKRERITEDFNMLKKTIATLDKKKVDELIRAHESVNKDFGQIFNCLLPDAHASLVPPEGKTVCEGLEVKVSFGGVVKDSLHELSGGQRSLVALSLILAMLKFKPAPLYILDEVDAALDLSHTANIGMMIKTHFHHNQFIIVSLKQGMFSNADVLFQTRFADGHSTCTRLNGGDIAVLCQDKVLQAQALELTDAGKAKKDAAAKKGAQKNDKEPPKKKPIVVDDDDFE | not soluble |
| MSIVAKSYEESADPVVAYCAEHTAVQTPLQAELQKETLTNAPHSGMLGAPEVLTFGENFIKFLGAKRVLDVGTFTGASALAWALAVPDDGEVFTFDIDHANYRKFGVPILSKCEKTFKKIKPVEGPGVESLDKLIADGQSGTFDFAFIDADKANYSNYYEKCVSLLRKGGVIFVDNSLWDGAVCDPAKRTDPRTAAIHEMNDKIYQDDRTYSALLNLGDGIHMAFKK | not soluble |
| MLLSVIITAQGRKGYVMQAVRSVLSQNIPKEDFEIIVSKDFKDDVIDEFLDGRAIVLNENHIRSGSRVASAVLQSSGKILVFLDDDDLFYPGKLREVKIVFSEMGVDYFKNSVKPVAESGDTVSYYQPAIKSDIFVKEPNEQDIRKLLKLRAGFNSSSISLKKDILVGYLDVLSKINLAVDSFYFFLYMSHSRPIYYSKKTLSLYRVLSKSTSRDVRNINAYAEFKSKFYELYSRDFETISEMASDGPCSKLAKTEFHLQMAYKWIFNTYRKEERPRMLHTLASSIYSHDPFIALPWPSFMKKIVQRREYFREKKLLSENTELEHHHHHH | not soluble |
| MAHHHHHHMQTATAPFILRSLYKDAYISDMQIARPITELMMNTIGAQLTNKYDTHIPAIACSLYTLFSMSRVQTLGQEFCDLLPVVKAHPWQPVGPARVLLLAVLQLVEPTAVFVVARKLFPDLSTADVEEVLRKAVLCALFLFERFGTLPHRIARVRFLSLKPSRTLQDSDGAPGSYLVLGLVLLVELVVRLWRYSKERTSREAKRSTEAAVITSSDEDAEDARSGKCMLCLSNRKCPTATNCGHIFCWRCIAEWIQSNPQEAVCPFCRQHITTQSLVPLYFYVAKEPPRVGTATDAAAPPAA | soluble |
| MGSDKIHHHHHHMTETTSSPQHYLGWDIGGANLKVALVRPDGIAVKVIQVPCPLWQGMDRLDAAIDLALAELGGPGGAKHSVTMTGELADIFPDRASGVWEIALRTHAMLGSELCFFAGASGFVPLAQVQQHANAIASANWLASAAFVATKLQQGLFIDIGSTTADFVLLHDGRPVNRGQTDAERMQHEELVYTGVARTSLMALASRIPFAGQWQNVAAEHFATTADVYRLTGELDPAEDMAATADGAGKSMDETCRRLARMVGRDADDADKTAWVHLAQAFRQQQLAILRDAVLCNLSRNVVRPGAPFIGAGAGVFLVRELAQQLGHEFLAASSLLKAESDQARNWAGVCLPAYAVANLGITANSQERAC | not soluble |
| MATLLFFSKPISDFVLGDKVGFDAKILESNDRILLIKPLQIGVDSNISVIDNEGKIFSFYVFSTTFTSSKHPNLQVFIEDKNYYSNAFLKPQKENMAENAPKDAPTNNKPLKEEKEETKEKEEETITIGDNTNAMKIVKKDIQKGYKALKSSQRKWYCLGICSKKSKLSLMPKEIFNDKQFTYFKFDKRLALSKFPVIYKVVDGYDNPVNTRIVGDYIIAEDVSAKWTLRLGKDYLCIRFVKKAKDE | not soluble |
| MGSDKIHHHHHHMPNDTHTTQANVDPAEIAKFEAMAQSWWDPNGEFKPLHQLNPLRLNYIDSTAGGIFAKKVLDVGCGGGILSESMAKLGANVDGIDMGEAPLEVARLHALESGVMVNYHKTTAEAHSASHANHYQVVTCMEMLEHVPDPQSVIQACCDMVEPGGFVFFSTINRNMLSYVQAILGAEYLLKLLPIGTHDHSKFIRPSELMAMVDNTDLICKDALGISFNPLTSIFSYTKSLEVNYMIATQKMAD | not soluble |
| MMDEEGAALPVWSRRLQQLTERSGLSQAELARRAGMSRDTYNRYCRGLTRPPRKKVLALAELFGVETWEIDPLEAGIAALRRESERSLEALGEQPIPSTPPYTLSPPSSGDPRMMHLRVDVDVRIETALRIAELLNREGSS | not soluble |
| MGSDKIHHHHHHMDIIVVGGGTSGLLSALALEKEGHNVIVFEKESYVGGLCRSEKIDGYSVDIGVHAITMLDNGPLIRLLNKYSRYLPNFRNYGDYYIRTDKLHRIPVSMHEWMTTPVIPNKDKVLITSKIMDLMTMGFTKDASVYDFVKEMGLSSTSVDFFNTIAYFLSGEDLENTPLWRFFTGAGYIPEDDILPFIYKDMKINPLKSTLVKKFGTERIINILNDGFISSIKNGSKKYINKFMTEHRYSTQGYPVGGVQSICNCITYSLRNTQIKNEEVKKITKNGKKYTVKTSEGEYTSDIIVYSAPAITLPKVAKINKIQKNKEKLSNIKFTKSTTVWIGDEKNYFPYLGSEIWIDNPCWASTVSNYDESLAPKGKHLMGFSFVNSKKEDALKTIESKLNLNTDKVDMLYVQETVPEQASCSIGQFFVYPKIDDTFFVVGTDSDPRSMGITRAAYSVEVMLSEFKNIYDTQKETAKK | not soluble |
| MSLSGDDFSVPSKNSESTLFDSVEGDGAMMEEGVKSRPRQKKTQACLASKHVQEAPRLEPANEEHNVETAEDSEIRYLSADSGDADDSDADLGSAVKQLQEFIPNIKDRATSTIKRMYRDDLERFKEFKAQGVAIKFGKFSVKENKQLEKNVEDFLALTGIESADKLLYTDRYPEEKSVITNLKRRYSFRLHIGRNIARPWKLIYYRAKKMFDVNNYKGRYSEGDTEKLKMYHSLLGNDWKTIGEMVARSSLSVALKFSQISSQRNRGAWSKSETRKLIKAVEEVILKKMSPQELKEVDSKLQENPESCLSIVREKLYKGISWVEVEAKVQTRNWMQCKSKWTEILTKRMTNGRRIYYGMNALRAKVSLIERLYEINVEDTNEIDWEDLASAIGDVPPSYVQTKFSRLKAVYVPFWQKKTFPEIIDYLYETTLPLLKEKLEKMMEKKGTKIQTPAAPKQVFPFRDIFYYEDDSEGHHHHHH | not soluble |
| MGSDKIHHHHHHMTKPNQDAIGMLPFKQSTVSLQVQEHYKTPMLLLGYQQRWCADLTPVKVCEKSRRIGLSWGEAADSALFAASQKGMDTWYIGYNKDMAQEFIRDCADWAKAYGLAAGEIEETEEIFKEGDEEKAILAYVIRFSSGWRITALSSRPSNLRGKQGRVIIDEAAFHDDLPELLKAAMALLMWGGQVHIISTHNGVDNPFNELVNEVRAGKKPYSLHTITFDDAIKDGLYQRICLRLGRTWSQQAQDEWVAEIRASYGDAAAEELDCIPRNSGGAWLTRALIESRMNADTPRLCLEKKDEFALQPEPIRNREIAQWCDENLYPVLTALPEKQRHFLGMDFARSGDLSVIAIGQEQSDLCLKNVLLLELSNIPFAQQEQIYFYIGDRLPRFSKAANDARGNGQSLSEKAFDRYGAIVEGVMLSESWYREHTAPFKAALEDDTLFDIVKNDDVLADLRAFQVVKGIPRLPDKRTVGQNKTKRHGDAAIAYLLLHYAYRTDQSFEINFRSTGTRTTTQLFNNNSFERVRTGRGFGSIRGGNDFRGY | not soluble |
